According to paper PMC8674358, “Decoding non-canonical mRNA decay by the endoplasmic-reticulum stress sensor IRE1α” (Nature Communications, 2021):

B1: IRE1-KR-R887A, unphosphorylated (domain or fragment, human, UniProt O75460 547-977, looked up)
chain: GSSPSLEQDDGDEETSVVIVGKISFCPKDVLGHGAEGTIVYRGMFDNRDVAVKRILPECFSFADREVQLLRESDEHPNVIRYFCTEKDRQFQYIAIELCAATLQEYVEQKDFAHLGLEPITLLQQTTSGLAHLHSLNIVHRDLKPHNILISMPNAHGKIKAMISDFGLCKKLAVGRHSFSRRSGVPGTEGWIAPEMLSEDCKENPTYTVDIFSAGCVFYYVISEGSHPFGKSLQRQANILLGACSLDCLHPEKHEDVIARELIEKMIAMDPQKRPSAKHVLKHPFFWSLEKQLQFFQDVSDRIEKESLDGPIVKQLERGGRAVVKMDWRENITVPLQTDLAKFRTYKGGSVRDLLRAMRNKKHHYRELPAEVRETLGSLPDDFVCYFTSRFPHLLAHTYRAMELCSHERLFQPYYFHEPPEPQPPVTPDAL
notes: IRE1α, human, kinase-endoribonuclease (KR) module, residues G547-L977, with R887A; also called unphosphorylated R887A; source: SF9 cells, purified in-house following the same procedure as IRE1α KR; not shown: His6, N-terminal, cleaved
B2: IRE1-KR-R887A, phosphorylated (domain or fragment, human, UniProt O75460 547-977, looked up)
chain: B1 chain
modifications: phosphorylated (allowed to autophosphorylate in the presence of ATP and MgCl2); sites not stated for this mutant
notes: IRE1α, human, kinase-endoribonuclease (KR) module, residues G547-L977, with R887A; also called phosphorylated IRE1-KR-R887A; IRE1-KR-3P R887A; source: SF9 cells, purified in-house following the same procedure as IRE1α KR; autophosphorylated with 2 mM ATP and 10 mM MgCl2, then SEC; not shown: His6, N-terminal, cleaved

Biological target: the molecule itself
Assay: cross-linking; 1 μg IRE1-KR (~0.8 μM) or various concentrations in RNA cleavage buffer (20 mM HEPES pH 7.5, 50 mM K acetate, 1 mM Mg acetate, 0.05% Triton X-100), 250 μM DSS, 1 h on ice; SDS-PAGE and IRE1α immunoblot; also with CRUK-3 (5 µM), which augmented KR-0P dimerization and oligomerization

Protein | stoichiometry N
B1 | 2
B2 | 2
